{"source": "patent CN117866903A", "about": "(BEILAI PHARMACEUTICAL CO LTD, dated 2024)", "binders": {"B1": {"name": "串联单域抗体1-C3-3-H10 (VHH-(GGGGS)3-VHH-IgG1 Fc) (Fc fusion)", "chain": "DVQLVESGGGLVEPGESLRLSCAAPGEDLGYYAIAWFRQAPGKEREVVSCVTSSGSSTNYLSSVKDRFTISIDNAKNTVYLQMNSLKPEDTAVYYCASTILLCSDYISAFGTWGQGTQVTVASGGGGSGGGGSGGGGSEVQLVESGGGLVQPGGSLRLSCAASGFSIHIYAMGWYRQAPGKQRELVATITRGGVTNNADSVKGRFTISRDNAKNTAYLQMNSLKPEDTAVYYCNAGGTNGGYWGQGTQVTVSS", "notes": "also called C3-H10; C3-H10重组蛋白; not shown: human IgG1 Fc"}, "B2": {"name": "单域抗体1-C3 (Fc fusion)", "chain": "DVQLVESGGGLVEPGESLRLSCAAPGEDLGYYAIAWFRQAPGKEREVVSCVTSSGSSTNYLSSVKDRFTISIDNAKNTVYLQMNSLKPEDTAVYYCASTILLCSDYISAFGTWGQGTQVTVAS", "notes": "not shown: human IgG1 Fc of vector pcDNA3.4-hIgG1-Fc"}, "B3": {"name": "单域抗体3-H10 (Fc fusion)", "chain": "EVQLVESGGGLVQPGGSLRLSCAASGFSIHIYAMGWYRQAPGKQRELVATITRGGVTNNADSVKGRFTISRDNAKNTAYLQMNSLKPEDTAVYYCNAGGTNGGYWGQGTQVTVSS", "notes": "as for B2"}, "B4": {"name": "阳性对照抗体Ixekizumab (antibody, human IgG4 S228P, kappa, V domains shown)", "VH": "QVQLVQSGAEVKKPGSSVKVSCKASGYSFTDYHIHWVRQAPGQGLEWMGVINPMYGTTDYNQRFKGRVTITADESTSTAYMELSSLRSEDTAVYYCARYDYFTGTGVYWGQGTLVTVSS", "VL": "DIVMTQTPLSLSVTPGQPASISCRSSRSLVHSRGNTYLHWYLQKPGQSPQLLIYKVSNRFIGVPDRFSGSGSGTDFTLKISRVEAEDVGVYYCSQSTHLPFTFGQGTKLEIKR", "notes": "also called 阳性抗体; 依奇珠单抗"}}, "key": {"[1]": {"biological_target": "T1, Human IL-17A重组蛋白 (Gly 24-Ala 155, C端6×His) (human, biotinylated in the ELISA of paragraph 251 (Biotin-IL-17A-His))", "T1 sequence (chain, as listed by the source)": "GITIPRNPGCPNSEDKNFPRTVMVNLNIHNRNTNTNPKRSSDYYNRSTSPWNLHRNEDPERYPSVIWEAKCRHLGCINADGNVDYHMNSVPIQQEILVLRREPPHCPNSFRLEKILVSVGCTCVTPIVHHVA", "test": "cell-based or functional assay"}, "[2]": {"biological_target": "T1, Human IL-17A重组蛋白 (Gly 24-Ala 155, …)", "test": "ELISA: antibody coated at 2 μg/mL, Biotin-IL-17A-His titrated from 10 μg/mL (5-fold, 7 points), HRP-streptavidin"}, "[3]": {"biological_target": "T1, Human IL-17A重组蛋白 (Gly 24-Ala 155, …)", "test": "BLI (ForteBio OCTET R2): IL-17A-His at 5 μg/mL on HIS1K sensor, antibody 50-3.13 nM, 25℃"}}, "data": [{"binder": "B1", "values": [{"measurement": "串联单域抗体阻断活性检测 (293F-IL-17RA-IL-17Rc-ACT1-NFκB-Luc报告基因细胞株), IC50", "setting": "[1]", "value": 0.63, "unit": "nM"}, {"measurement": "EC50", "setting": "[2]", "value": 1.13, "unit": "µg/mL"}, {"measurement": "Kd", "setting": "[3]", "value": 1.32, "unit": "nM"}]}, {"binder": "B2", "values": [{"measurement": "EC50", "setting": "[2]", "value": 5.28, "unit": "µg/mL"}]}, {"binder": "B3", "values": [{"measurement": "EC50", "setting": "[2]", "value": 1.22, "unit": "µg/mL"}]}, {"binder": "B4", "values": [{"measurement": "串联单域抗体阻断活性检测 (293F-IL-17RA-IL-17Rc-ACT1-NFκB-Luc报告基因细胞株), IC50", "setting": "[1]", "value": 2.23, "unit": "nM"}, {"measurement": "EC50", "setting": "[2]", "value": 10.1, "unit": "µg/mL"}, {"measurement": "Kd", "setting": "[3]", "value": 0.391, "unit": "nM"}]}]}
